Test results: US20240317847A1 (Bayer, published 2024)

T1: human IL-11 (human, UniProt P20809 22-199)
T1 construct: bought from Invigate; also called hIL-11; hIL11
T1 sequence: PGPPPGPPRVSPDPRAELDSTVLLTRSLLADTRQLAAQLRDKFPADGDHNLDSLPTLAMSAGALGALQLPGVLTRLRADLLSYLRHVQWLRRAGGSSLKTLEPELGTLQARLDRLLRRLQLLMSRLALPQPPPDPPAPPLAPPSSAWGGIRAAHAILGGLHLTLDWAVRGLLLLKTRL

T2: murine IL-11 (mouse, UniProt P47873 22-199)
T2 construct: bought from Invigate; also called mIL-11; mIL11
T2 sequence: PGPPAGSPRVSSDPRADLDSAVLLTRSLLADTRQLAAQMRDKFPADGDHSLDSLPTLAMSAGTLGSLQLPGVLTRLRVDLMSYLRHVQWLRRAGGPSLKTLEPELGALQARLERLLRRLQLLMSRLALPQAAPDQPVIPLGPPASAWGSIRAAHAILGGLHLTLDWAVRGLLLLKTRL

B1: TPP-19841 (antibody, V domains shown)
VH: EVQLLESGGGLVQPGGSLRLSCAASGFTFSSYGMHWVRQAPGKGLEWVSVISYDGSYKYYADSVKGRFTISRDNSKNTLYLQMNSLRAEDTAVYYCAAGVPDYWGQGTLVTVSS
VL: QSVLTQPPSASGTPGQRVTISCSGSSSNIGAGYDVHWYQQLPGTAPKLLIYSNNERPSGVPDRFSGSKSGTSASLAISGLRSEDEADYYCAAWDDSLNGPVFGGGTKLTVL
B2: TPP-19843 (antibody, V domains shown)
VH: EVQLLESGGGLVQPGGSLRLSCAASGFTFSSYGMHWVRQAPGKGLEWVSVISYDGSYKYYADSVKGRFTISRDNSKNTLYLQMNSLRAEDTAVYYCAAGVPDYWGQGTLVTVSS
VL: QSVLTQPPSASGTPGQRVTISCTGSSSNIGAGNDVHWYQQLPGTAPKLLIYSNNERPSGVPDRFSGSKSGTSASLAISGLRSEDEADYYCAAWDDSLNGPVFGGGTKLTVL
B3: TPP-19874 (antibody, V domains shown)
VH: EVQLLESGGGLVQPGGSLRLSCAASGFTFSSYGMHWVRQAPGKGLEWVSVISYDGSYKYYADSVKGRFTISRDNSKNTLYLQMNSLRAEDTAVYYCARGVPDYWGQGTLVTVSS
VL: QSVLTQPPSASGTPGQRVTISCTGSSSNIGAGYDVHWYQQLPGTAPKLLIYSNNERPSGVPDRFSGSKSGTSASLAISGLRSEDEADYYCAAWDDSLNGPVFGGGTKLTVL
B4: TPP-19850 (antibody, V domains shown)
VH: EVQLLESGGGLVQPGGSLRLSCAASGFTFSSYGMHWVRQAPGKGLEWVSVISYDGSYKYYADSVKGRFTISRDNSKNTLYLQMNSLRAEDTAVYYCAAGVPDYWGQGTLVTVSS
VL: QSVLTQPPSASGTPGQRVTISCTGSSSNIGAGYDVHWYQQLPGTAPKLLIYSNNERPSGVPDRFSGSKSGTSASLAISGLRSEDEADYYCAAWDDSLSGPVFGGGTKLTVL
B5: TPP-19847 (antibody, V domains shown)
VH: EVQLLESGGGLVQPGGSLRLSCAASGFTFSSYGMHWVRQAPGKGLEWVSVISYDGSYKYYADSVKGRFTISRDNSKNTLYLQMNSLRAEDTAVYYCAAGVPDYWGQGTLVTVSS
VL: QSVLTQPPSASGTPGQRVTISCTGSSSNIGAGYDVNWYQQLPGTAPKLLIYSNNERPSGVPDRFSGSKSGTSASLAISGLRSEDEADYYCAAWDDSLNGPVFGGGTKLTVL
B6: TPP-19848 (antibody, V domains shown)
VH: EVQLLESGGGLVQPGGSLRLSCAASGFTFSSYGMHWVRQAPGKGLEWVSVISYDGSYKYYADSVKGRFTISRDNSKNTLYLQMNSLRAEDTAVYYCAAGVPDYWGQGTLVTVSS
VL: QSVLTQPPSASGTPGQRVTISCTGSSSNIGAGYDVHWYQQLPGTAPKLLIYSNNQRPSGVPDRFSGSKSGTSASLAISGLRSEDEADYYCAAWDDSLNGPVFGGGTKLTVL
B7: TPP-19866 (antibody, V domains shown)
VH: EVQLLESGGGLVQPGGSLRLSCAASGFTFSSYGMHWVRQAPGKGLEWVSVISYDGGYKYYADSVKGRFTISRDNSKNTLYLQMNSLRAEDTAVYYCAAGVPDYWGQGTLVTVSS
VL: QSVLTQPPSASGTPGQRVTISCTGSSSNIGAGYDVHWYQQLPGTAPKLLIYSNNERPSGVPDRFSGSKSGTSASLAISGLRSEDEADYYCAAWDDSLNGPVFGGGTKLTVL
B8: TPP-19849 (antibody, V domains shown)
VH: EVQLLESGGGLVQPGGSLRLSCAASGFTFSSYGMHWVRQAPGKGLEWVSVISYDGSYKYYADSVKGRFTISRDNSKNTLYLQMNSLRAEDTAVYYCAAGVPDYWGQGTLVTVSS
VL: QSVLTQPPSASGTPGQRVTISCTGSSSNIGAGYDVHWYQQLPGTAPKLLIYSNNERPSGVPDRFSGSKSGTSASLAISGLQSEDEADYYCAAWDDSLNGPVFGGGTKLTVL
B9: TPP-19864 (antibody, V domains shown)
VH: EVQLLESGGGLVQPGGSLRLSCAASGFTFSSYGMHWVRQAPGKGLEWVSVISGDGSYKYYADSVKGRFTISRDNSKNTLYLQMNSLRAEDTAVYYCAAGVPDYWGQGTLVTVSS
VL: QSVLTQPPSASGTPGQRVTISCTGSSSNIGAGYDVHWYQQLPGTAPKLLIYSNNERPSGVPDRFSGSKSGTSASLAISGLRSEDEADYYCAAWDDSLNGPVFGGGTKLTVL
B10: TPP-19872 (antibody, V domains shown)
VH: EVQLLESGGGLVQPGGSLRLSCAASGFTFSSYGMHWVRQAPGKGLEWVAVISYDGSYKYYADSVKGRFTISRDNSKNTLYLQMNSLRAEDTAVYYCAAGVPDYWGQGTLVTVSS
VL: QSVLTQPPSASGTPGQRVTISCTGSSSNIGAGYDVHWYQQLPGTAPKLLIYSNNERPSGVPDRFSGSKSGTSASLAISGLRSEDEADYYCAAWDDSLNGPVFGGGTKLTVL
B11: TPP-19868 (antibody, V domains shown)
VH: EVQLLESGGGLVQPGGSLRLSCAASGFTFSSYGMHWVRQAPGKGLEWVSVISYDGSYTYYADSVKGRFTISRDNSKNTLYLQMNSLRAEDTAVYYCAAGVPDYWGQGTLVTVSS
VL: QSVLTQPPSASGTPGQRVTISCTGSSSNIGAGYDVHWYQQLPGTAPKLLIYSNNERPSGVPDRFSGSKSGTSASLAISGLRSEDEADYYCAAWDDSLNGPVFGGGTKLTVL
B12: TPP-19873 (antibody, V domains shown)
VH: EVQLLESGGGLVQPGGSLRLSCAASGFTFSSYGMHWVRQAPGKGLEWVSVISYDGSNKYYADSVKGRFTISRDNSKNTLYLQMNSLRAEDTAVYYCAAGVPDYWGQGTLVTVSS
VL: QSVLTQPPSASGTPGQRVTISCTGSSSNIGAGYDVHWYQQLPGTAPKLLIYSNNERPSGVPDRFSGSKSGTSASLAISGLRSEDEADYYCAAWDDSLNGPVFGGGTKLTVL
B13: TPP-19867 (antibody, V domains shown)
VH: EVQLLESGGGLVQPGGSLRLSCAASGFTFSSYGMHWVRQAPGKGLEWVSVISYDGSSKYYADSVKGRFTISRDNSKNTLYLQMNSLRAEDTAVYYCAAGVPDYWGQGTLVTVSS
VL: QSVLTQPPSASGTPGQRVTISCTGSSSNIGAGYDVHWYQQLPGTAPKLLIYSNNERPSGVPDRFSGSKSGTSASLAISGLRSEDEADYYCAAWDDSLNGPVFGGGTKLTVL
B14: TPP-19862 (antibody, V domains shown)
VH: EVQLLESGGGLVQPGGSLRLSCAASGFTFSSYGMSWVRQAPGKGLEWVSVISYDGSYKYYADSVKGRFTISRDNSKNTLYLQMNSLRAEDTAVYYCAAGVPDYWGQGTLVTVSS
VL: QSVLTQPPSASGTPGQRVTISCTGSSSNIGAGYDVHWYQQLPGTAPKLLIYSNNERPSGVPDRFSGSKSGTSASLAISGLRSEDEADYYCAAWDDSLNGPVFGGGTKLTVL
B15: TPP-19861 (antibody, V domains shown)
VH: EVQLLESGGGLVQPGGSLRLSCAASGFTFSSYAMHWVRQAPGKGLEWVSVISYDGSYKYYADSVKGRFTISRDNSKNTLYLQMNSLRAEDTAVYYCAAGVPDYWGQGTLVTVSS
VL: QSVLTQPPSASGTPGQRVTISCTGSSSNIGAGYDVHWYQQLPGTAPKLLIYSNNERPSGVPDRFSGSKSGTSASLAISGLRSEDEADYYCAAWDDSLNGPVFGGGTKLTVL
B16: TPP-19865 (antibody, V domains shown)
VH: EVQLLESGGGLVQPGGSLRLSCAASGFTFSSYGMHWVRQAPGKGLEWVSVISYSGSYKYYADSVKGRFTISRDNSKNTLYLQMNSLRAEDTAVYYCAAGVPDYWGQGTLVTVSS
VL: QSVLTQPPSASGTPGQRVTISCTGSSSNIGAGYDVHWYQQLPGTAPKLLIYSNNERPSGVPDRFSGSKSGTSASLAISGLRSEDEADYYCAAWDDSLNGPVFGGGTKLTVL
B17: TPP-19842 (antibody, V domains shown)
VH: EVQLLESGGGLVQPGGSLRLSCAASGFTFSSYGMHWVRQAPGKGLEWVSVISYDGSYKYYADSVKGRFTISRDNSKNTLYLQMNSLRAEDTAVYYCAAGVPDYWGQGTLVTVSS
VL: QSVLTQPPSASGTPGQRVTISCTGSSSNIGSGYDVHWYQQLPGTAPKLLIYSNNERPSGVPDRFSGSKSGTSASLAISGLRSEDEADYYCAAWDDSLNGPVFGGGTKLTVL
B18: TPP-19845 (antibody, V domains shown)
VH: EVQLLESGGGLVQPGGSLRLSCAASGFTFSSYGMHWVRQAPGKGLEWVSVISYDGSYKYYADSVKGRFTISRDNSKNTLYLQMNSLRAEDTAVYYCAAGVPDYWGQGTLVTVSS
VL: QSVLTQPPSASGTPGQRVTISCTGSSSNIGAGYDVYWYQQLPGTAPKLLIYSNNERPSGVPDRFSGSKSGTSASLAISGLRSEDEADYYCAAWDDSLNGPVFGGGTKLTVL
B19: TPP-19863 (antibody, V domains shown)
VH: EVQLLESGGGLVQPGGSLRLSCAASGFTFSSYGMHWVRQAPGKGLEWVSAISYDGSYKYYADSVKGRFTISRDNSKNTLYLQMNSLRAEDTAVYYCAAGVPDYWGQGTLVTVSS
VL: QSVLTQPPSASGTPGQRVTISCTGSSSNIGAGYDVHWYQQLPGTAPKLLIYSNNERPSGVPDRFSGSKSGTSASLAISGLRSEDEADYYCAAWDDSLNGPVFGGGTKLTVL

Experiments:
[1] = target: T1, human IL-11; test: SPR, antibody captured, IL-11 as analyte
Protocol: (§1) Antibodies were captured via anti-mouse Fc IgGs (“Mouse antibody capture kit, Order No. BR100383, Cytiva) covalently amine coupled to a Series S CM5 sensor chip (Cytiva). The amine coupling was carried out according to the manufacturer's instructions using 1-ethyl-3-(3-dimethylaminopropyl) carbodiimide hydrochloride (EDC), N-hydroxysuccinimide (NHS) and ethanolamine HCl, pH 8.5 (“Amine Coupling Kit” BR-1000-50, Cytiva.). Human IL-11 (Invigate, e.g., lot #C121021-19), and murine IL-11 (Invigate, e.g., lot #C210819-09) were used as analytes. […] Based on that experiment an IL-11 concentration range was chosen to optimally determine kinetics and affinity of anti-IL-11 antibodies in multicycle kinetics mode. The sensor surface was regenerated with glycine pH 1.7 after each antigen injection. Obtained sensorgrams were double referenced (subtraction of reference flow cell signal and buffer injection) and were fitted to a 1:1 Langmuir binding model to derive kinetic data using the Biacore T200 Evaluation software or the Biacore Insight software.
(§2) Deviations from closest human germlines in CDR regions and FW regions and potential CMC relevant residues in CDR regions were adjusted by site directed mutagenesis following standard molecular protocols or purchased from DNA synthesis providers. The generated DNA constructs were expressed by transient transfection of mammalian cells and purified as described in Example 15. Antibodies were then tested for human IL-11 and murine IL-11 binding by SPR as described in Example 16.

[2] = target: T2, murine IL-11; test: SPR, antibody captured, IL-11 as analyte
Protocol: as §1, §2

Binder	Kd [1]	Kd [2]	binding result [2]
B1	6.3 nM	0.79 nM	–
B2	17 nM	7.5 nM	–
B3	99 nM	9.9 nM	–
B4	6.5 nM	1.6 nM	–
B5	9 nM	2.1 nM	–
B6	52 nM	2.4 nM	–
B7	8.5 nM	1.4 nM	–
B8	5.9 nM	0.68 nM	–
B9	13 nM	–	no binding
B10	5.5 nM	0.47 nM	–
B11	6.2 nM	0.72 nM	–
B12	21 nM	4 nM	–
B13	27 nM	3.4 nM	–
B14	19 nM	4.7 nM	–
B15	17 nM	28 nM	–
B16	25 nM	3.6 nM	–
B17	7.3 nM	0.66 nM	–
B18	20 nM	5 nM	–
B19	4.7 nM	0.64 nM	–
